Data on two molecules can be found in publication PMC6309448 (Nature, 2018).

In the experiment the target is T1, outer membrane usher FimD (Escherichia coli, UniProt P30130 46-878).
T1 sequence: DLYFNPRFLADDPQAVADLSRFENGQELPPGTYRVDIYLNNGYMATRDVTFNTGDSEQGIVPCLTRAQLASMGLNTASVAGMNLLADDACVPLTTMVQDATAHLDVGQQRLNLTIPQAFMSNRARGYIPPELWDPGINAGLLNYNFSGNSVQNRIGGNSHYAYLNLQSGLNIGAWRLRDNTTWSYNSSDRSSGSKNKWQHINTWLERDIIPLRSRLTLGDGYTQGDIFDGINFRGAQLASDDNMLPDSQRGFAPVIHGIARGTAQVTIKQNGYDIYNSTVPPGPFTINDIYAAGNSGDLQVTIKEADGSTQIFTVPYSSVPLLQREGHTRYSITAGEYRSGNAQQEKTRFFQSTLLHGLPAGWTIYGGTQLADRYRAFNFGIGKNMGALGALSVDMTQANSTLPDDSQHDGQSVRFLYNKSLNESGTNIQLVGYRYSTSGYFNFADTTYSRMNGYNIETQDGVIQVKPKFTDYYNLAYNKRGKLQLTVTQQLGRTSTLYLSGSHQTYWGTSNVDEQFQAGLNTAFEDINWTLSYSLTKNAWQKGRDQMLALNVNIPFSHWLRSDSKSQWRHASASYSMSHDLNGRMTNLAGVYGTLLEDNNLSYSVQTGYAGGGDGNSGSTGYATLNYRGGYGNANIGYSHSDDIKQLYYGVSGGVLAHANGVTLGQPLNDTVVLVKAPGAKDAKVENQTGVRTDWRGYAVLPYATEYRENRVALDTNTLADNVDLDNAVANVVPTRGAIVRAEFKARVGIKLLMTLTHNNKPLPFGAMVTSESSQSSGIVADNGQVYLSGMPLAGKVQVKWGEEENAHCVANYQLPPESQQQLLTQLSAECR
Briefly: cryo-EM structure.

B1: FimC chaperone (natural protein)
chain: GVALGATRVIYPAGQKQEQLAVTNNDENSTYLIQSWVENADGVKDGRFIVTPPLFAMKGKKENTLRILDATNNQLPQDRESLFWMNVKAIPSMDKSKLTENTLQLAIISRIKLYYRPAKLALPPDQAAEKLRFRRSANSLTLINPTPYYLTVTELNAGTRVLENALVPPMGESTVKLPSDAGSNITYRTINDYGALTPKMTGVME
Turning to B1, the binding result is listed as “binds”.

B2: pilus subunit FimG (natural protein)
chain: ADVTITVNGKVVAKPCTVSTTNATVDLGDLYSFSLMSAGAASAWHDVALELTNCPVGTSRVTASFSGAADSTGYYKNQGTAQNIQLELQDDSGNTLNTGATKTVQVDDSSQSAHFPLQVRALTVNGGATQGTIQAVISITYTYS
Consider B2, for which the binding result is recorded as “binds”.
